Data from PMC6511879 (Nucleic Acids Research, 2019).

Legend:
[1] = molecular target: T1, CtKti12NTD (Thermochaetoides thermophila, UniProt G0SHI1); test: X-ray crystal structure, […] Å; type: binding; conditions: bound as ADP·AlF3 with Mg2+, transition state mimic; nucleotide site
T1 sequence (G0SHI1 2-252): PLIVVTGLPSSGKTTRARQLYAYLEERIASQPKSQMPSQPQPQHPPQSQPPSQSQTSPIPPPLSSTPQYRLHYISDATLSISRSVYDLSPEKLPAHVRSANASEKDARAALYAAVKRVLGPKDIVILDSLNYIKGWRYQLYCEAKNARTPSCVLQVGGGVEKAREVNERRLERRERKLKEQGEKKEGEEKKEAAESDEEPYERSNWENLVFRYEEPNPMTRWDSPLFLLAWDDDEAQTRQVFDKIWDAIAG

[2] = molecular target: T2, CtKti12 (also ChKti12), full length (Thermochaetoides thermophila, UniProt G0SHI1); conditions: 1 mM ATP; 2 mM MgCl2; pH 7.5
T2 sequence (G0SHI1 1-378): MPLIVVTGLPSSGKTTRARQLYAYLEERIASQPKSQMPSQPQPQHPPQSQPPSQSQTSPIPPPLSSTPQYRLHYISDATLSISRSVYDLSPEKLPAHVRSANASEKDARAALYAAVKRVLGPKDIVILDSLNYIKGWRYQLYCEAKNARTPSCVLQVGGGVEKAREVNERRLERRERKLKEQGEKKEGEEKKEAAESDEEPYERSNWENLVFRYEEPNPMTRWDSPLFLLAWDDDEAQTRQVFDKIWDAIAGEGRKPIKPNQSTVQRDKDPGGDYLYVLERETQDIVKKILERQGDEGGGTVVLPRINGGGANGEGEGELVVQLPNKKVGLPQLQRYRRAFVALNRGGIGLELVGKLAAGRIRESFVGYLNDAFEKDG

[3] = molecular target: T3, Full length GST-ScElp1 (Saccharomyces cerevisiae, UniProt Q06706 1-1349); test: pull-down
T3 sequence (looked up): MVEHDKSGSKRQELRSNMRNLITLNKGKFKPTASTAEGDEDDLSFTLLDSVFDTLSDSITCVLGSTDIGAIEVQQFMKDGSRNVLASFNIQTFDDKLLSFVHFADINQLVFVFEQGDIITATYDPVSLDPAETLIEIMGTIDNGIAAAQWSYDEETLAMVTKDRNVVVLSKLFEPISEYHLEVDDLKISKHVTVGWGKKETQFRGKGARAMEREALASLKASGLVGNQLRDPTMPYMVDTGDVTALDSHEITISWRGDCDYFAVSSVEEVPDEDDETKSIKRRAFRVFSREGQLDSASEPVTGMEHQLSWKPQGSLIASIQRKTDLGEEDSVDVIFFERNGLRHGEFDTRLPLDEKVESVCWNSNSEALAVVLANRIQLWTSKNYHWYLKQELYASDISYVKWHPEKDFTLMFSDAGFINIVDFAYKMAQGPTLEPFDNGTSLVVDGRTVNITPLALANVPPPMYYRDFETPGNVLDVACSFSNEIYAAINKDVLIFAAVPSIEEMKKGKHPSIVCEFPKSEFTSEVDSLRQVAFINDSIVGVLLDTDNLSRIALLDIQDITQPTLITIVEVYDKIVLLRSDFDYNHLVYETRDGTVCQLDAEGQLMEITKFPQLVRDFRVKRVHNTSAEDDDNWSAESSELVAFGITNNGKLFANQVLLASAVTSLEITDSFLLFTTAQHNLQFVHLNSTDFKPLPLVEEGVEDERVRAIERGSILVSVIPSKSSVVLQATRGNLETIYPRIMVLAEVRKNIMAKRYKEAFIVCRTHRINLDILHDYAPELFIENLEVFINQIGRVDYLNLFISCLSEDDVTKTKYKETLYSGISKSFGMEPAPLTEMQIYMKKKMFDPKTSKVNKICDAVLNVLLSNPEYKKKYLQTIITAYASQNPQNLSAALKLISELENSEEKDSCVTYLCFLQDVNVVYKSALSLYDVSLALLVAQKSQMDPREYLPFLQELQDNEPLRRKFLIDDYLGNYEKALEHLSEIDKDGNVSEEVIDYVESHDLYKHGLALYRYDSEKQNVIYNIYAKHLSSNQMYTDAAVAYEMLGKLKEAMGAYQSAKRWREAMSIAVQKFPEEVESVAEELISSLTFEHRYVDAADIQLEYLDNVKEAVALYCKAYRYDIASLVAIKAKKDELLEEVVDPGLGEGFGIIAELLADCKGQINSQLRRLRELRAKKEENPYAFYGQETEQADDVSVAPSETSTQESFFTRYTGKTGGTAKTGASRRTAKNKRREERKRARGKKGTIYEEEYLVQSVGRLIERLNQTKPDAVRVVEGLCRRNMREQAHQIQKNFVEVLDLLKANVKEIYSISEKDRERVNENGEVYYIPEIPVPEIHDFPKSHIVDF

[4] = molecular target: T4, GST-ScElp1 first WD40 domain (aa 42-431) (Saccharomyces cerevisiae, UniProt Q06706 42-431); test: pull-down
T4 sequence (looked up): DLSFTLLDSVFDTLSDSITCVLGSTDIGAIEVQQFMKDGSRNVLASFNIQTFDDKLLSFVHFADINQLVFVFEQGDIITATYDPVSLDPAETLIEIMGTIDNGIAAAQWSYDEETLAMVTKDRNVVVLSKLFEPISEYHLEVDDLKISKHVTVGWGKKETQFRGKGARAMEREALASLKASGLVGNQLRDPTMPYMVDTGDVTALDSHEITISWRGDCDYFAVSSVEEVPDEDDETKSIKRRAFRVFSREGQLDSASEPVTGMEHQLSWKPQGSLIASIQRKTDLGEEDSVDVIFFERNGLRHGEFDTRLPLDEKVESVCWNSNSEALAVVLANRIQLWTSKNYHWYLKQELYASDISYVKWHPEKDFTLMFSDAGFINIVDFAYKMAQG

[5] = molecular target: T5, GST-ScElp1 first and second WD40 domains (aa 1-734) (Saccharomyces cerevisiae, UniProt Q06706 1-734); test: pull-down
T5 sequence (looked up): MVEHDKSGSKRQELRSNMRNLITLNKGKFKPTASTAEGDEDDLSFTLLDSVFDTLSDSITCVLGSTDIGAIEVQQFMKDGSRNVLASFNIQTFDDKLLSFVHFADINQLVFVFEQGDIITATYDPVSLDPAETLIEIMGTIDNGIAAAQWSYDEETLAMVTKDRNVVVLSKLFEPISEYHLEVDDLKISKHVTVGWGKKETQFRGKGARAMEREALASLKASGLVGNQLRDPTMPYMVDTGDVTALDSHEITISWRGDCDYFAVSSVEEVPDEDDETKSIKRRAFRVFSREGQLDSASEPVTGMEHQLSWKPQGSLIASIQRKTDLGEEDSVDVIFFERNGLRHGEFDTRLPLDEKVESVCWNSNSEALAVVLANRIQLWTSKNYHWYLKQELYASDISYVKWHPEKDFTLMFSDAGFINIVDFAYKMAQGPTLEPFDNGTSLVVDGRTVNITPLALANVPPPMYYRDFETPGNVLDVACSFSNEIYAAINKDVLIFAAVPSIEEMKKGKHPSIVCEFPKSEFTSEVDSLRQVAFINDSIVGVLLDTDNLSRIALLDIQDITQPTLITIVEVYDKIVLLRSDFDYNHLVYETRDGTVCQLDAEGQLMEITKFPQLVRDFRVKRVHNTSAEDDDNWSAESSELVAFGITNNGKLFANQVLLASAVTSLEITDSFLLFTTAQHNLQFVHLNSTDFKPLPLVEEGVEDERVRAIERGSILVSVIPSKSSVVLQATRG

Nc1ncnc2c1ncn2[C@@H]1O[C@H](COP(=O)(O)OP(=O)(O)O)[C@@H](O)[C@H]1O [ADP]
X-ray crystal structure, 2.4 Å [1]: We solved the structure of CtKti12NTD in complex with ADP·AlF3

Nc1ncnc2c1ncn2[C@@H]1O[C@H](COP(=O)(O)OP(=O)(O)OP(=O)(O)O)[C@@H](O)[C@H]1O [ATP]
dTm [2]: addition of ATP contributed to an increased thermostability of CtKti12 and ScKti12 in vitro

B1: ScKti12-6xHis (Saccharomyces cerevisiae Kti12, wild type) (natural protein)
chain: MPLVLFTGYPCSGKTTLAKHLVQLLQSKIDATPSLSKYSITYHSDESLGIKHSDYITSQDERKLRSEIISAVKRDLSKNKIVIVDSLNYIKGFRYQLHCEVKNLSTTFCVIQTLCPPETIFEWNKTSNPNPWEPELLNQLIQRYEEPNSSNRWDSPLFAILTPQDNITDYIDDICKVVFQTSKSAKNSGHNDPLSKGLQKPNSATVLKPASQSNFIQVLDIETSKIIKTIMNHIKSLTSIGGVSNGTRVIVSEGITDINDDGCFFVDLPIGNVVTLAQLQRLKRQFINFNKLRDIDQDRIGPLFADYLNKNLN
binding result [3]: binds
binding result [4]: binds
binding result [5]: binds
